Test results published in patent US20230374526A1, “FORSKOLIN-INDUCIBLE PROMOTERS AND HYPOXIA-INDUCIBLE PROMOTERS” (ASKLEPIOS BIOPHARMACEUTICAL, INC., priority 2020, published 2023).

B1: Synp-FORNTATAm6a: synthetic forskolin-inducible promoter, SEQ ID NO: 74; 7×cAMPRE and 6×AP1(3) with TATA-m6A minimal promoter (nucleic acid)
DNA: AATAAAATATCTTTATTTTCATTACATCTGTGTGTTGGTTTTTTGTGTGCCATTGACGTCACGATTTGACGTCAACCATTGACGTCACGATTTGACGTCAACCATTGACGTCACGATTTGACGTCACGATTTGACGTCAACCATTGACTCACGATTTGACTCAACCATTGACTCACGATTTGACTCAACCATTGACTCACGATTTGACTCACGATTTATAAAAGGCAGAGCTCGTTTAGTGAACCGAAGCTTGGACTAAAGCGGACTTGTCTCGAG
modifications: Synp-FORNTATAm6a
notes: 7×cAMPRE and 6×AP1(3) with TATA-m6A minimal promoter
B2: FORN-pJB42: synthetic forskolin-inducible promoter, SEQ ID NO: 73; 7×cAMPRE and 6×AP1(3) with pJB42 minimal promoter (nucleic acid)
DNA: AATAAAATATCTTTATTTTCATTACATCTGTGTGTTGGTTTTTTGTGTGCCATTGACGTCACGATTTGACGTCAACCATTGACGTCACGATTTGACGTCAACCATTGACGTCACGATTTGACGTCACGATTTGACGTCAACCATTGACTCACGATTTGACTCAACCATTGACTCACGATTTGACTCAACCATTGACTCACGATTTGACTCACGATTCTGACAAATTCAGTATAAAAGCTTGGGGCTGGGGCCGAGCACTGGGGACTTTGAGGGTGGCCAGGCCAGCGTAGGAGGCCAGCGTAGGATCCTGCTGGGAGCGGGGAACTGAGGGAAGCGACGCCGAGAAAGCAGGCGTACCACGGAGGGAGAGAAAAGCTCCGGAAGCCCAGCAGCGGCCACC
modifications: Synp-FORNpJB42
notes: 7×cAMPRE and 6×AP1(3) with pJB42 minimal promoter
B3: Synp-FORNEW: synthetic forskolin-inducible promoter, SEQ ID NO: 62; 7×cAMPRE and 6×AP1(3) with YB-TATA minimal promoter (nucleic acid)
DNA: AATAAAATATCTTTATTTTCATTACATCTGTGTGTTGGTTTTTTGTGTGCCATTGACGTCACGATTTGACGTCAACCATTGACGTCACGATTTGACGTCAACCATTGACGTCACGATTTGACGTCACGATTTGACGTCAACCATTGACTCACGATTTGACTCAACCATTGACTCACGATTTGACTCAACCATTGACTCACGATTTGACTCACGATTGCGATTAATCCATATGCTCTAGAGGGTATATAATGGGGGCCACTAGTCTACTACCAGAAAGCTTGGTACCGAGCTCGGATCCAGCCACC
modifications: Synp-FORNEW
notes: 7×cAMPRE and 6×AP1(3) with YB-TATA minimal promoter

Experiments:
[1] = tested on: HEK-293 cells; test: Optimum inducer concentration to induce expression; format: cell-based, human
[2] = tested on: Pro10 cells; test: Rep78 expression via western blot under second generation forskolin-inducible promoters; format: cell-based; settings: for Rep78 expression in the presence of forskolin: 10 μM forskolin, 24 hrs; for Rep78 expression in the presence of forskolin / Rep78 expression in the absence of forskolin: western blot; for Rep78 expression in the absence of forskolin: DMSO control
Description: HEK293-T (ATCC-CRL-3216) cell lines were maintained in DMEM plus 10% FBS as described for HEK293 cells. Plasmids to be transfected were linearised and transfected using Lipofectamine 2000 (Invitrogen, 11668027) as per the manufacturer's instructions. The cells were then cultured for 48 hrs in non-selective medium before being switched to selective medium (standard medium plus Blasticidin 5 ug/ml (Thermofisher, A1113902).
Each of the promoters were tested for their ability to induce expression of the Rep78 protein. To eliminate the expression of Rep52, we have mutated the ATG start codon in Rep52 to an AGG. All constructs were synthesized by Genewiz. Pro10 cells were cultured and transfected using lipofectamine 2000 as previously described. 24 hrs after transfection 10 μM forskolin was added to the cells. Control wells were given DMSO as forskolin was dissolved in this carrier. After another 24 hrs the cells were then lysed and lysates were analysed for Rep78 expression via western blot.
Cells are collected in Eppendorf tubes and centrifuged at 300 g for 5 mins in a tabletop centrifuge. Supernatants are discarded and cell pellets are lysed in 1× radioimmunoprecipitation assay (RIPA) buffer, which is made up of RIPA Lysis & Extraction Buffer (Thermofisher, UK, 89900), 100×Halt Protease Inhibitor (Thermofisher, UK, 78445). After addition of the cell lysis buffer all samples are constantly kept on ice. The samples are vortexed and either stored at −20° C. overnight or kept on ice for 30 mins prior to centrifugation at full speed (21,130 g) in the tabletop centrifuge for 20 mins at 4° C. for the removal of any insoluble material. Cell lysates are mixed with 4×LDS loading sample buffer and 10× sample reducing agent (ThermoFisher, UK, NP0007 and NP0004); they are briefly spun down, heated to 95° C. for 10 mins, allowed to cool to 10° C., briefly spun down again and then separated on polyacrylamide gels (NuPAGE Novex 4-12% Bis-Tris Gels, 1.0 mm; ThermoFisher UK, NP0324BOX), which are allowed to reach room temperature before use. The PageRuler™ Prestained NIR Protein Ladder (ThermoFisher, UK, 26635) is run alongside the cell lysates for size comparison purposes. Gels are run at 150V for 1 hour 15 mins using ThermoFisher's XCell SureLock Mini-Cell system. Gels are then transferred to nitrocellulose membranes using the iBlot 2 Dry Blotting System, p0 programme, (ThermoFisher, UK) according to the manufacturer's instructions. Initially, a total protein stain is performed following the manufacturer's instructions (Revert™ 700 Total Protein Stain for Western Blot Normalization; Licor, UK, 926-11011), and this is followed by immunoblotting of the membranes. The membranes are specifically transferred to falcon tubes where they are first blocked with the Licor Odyssey® blocking buffer at room temperature for 1 hour, followed by probing with suitable primary antibodies resuspended in the Licor Odyssey® blocking buffer in a cold room set at 4° C. overnight. The following day membranes are washed 3× in PBS-T (0.05%) for 5 mins each time and then probed with a suitable secondary antibody for 1.5 hours at room temperature. Secondary antibodies typically contain a fluorescent tag for visualisation purposes. Membranes are washed once again 2× in PBS-T (0.05%) for 5 mins each time followed by a final wash in 1×PBS for 5 mins. The membranes are imaged using an Odyssey® Fc Licor imaging system.
The antibodies used in this experiment were: primary antibody: anti-Rep antibody 303.9 clone (Progen, 61069) and Secondary antibody: LICOR anti-mouse 800 nm (LICOR, 926-32210).
We also tested the ability of the AAV helper functions to induce the activity of the best performing promoter FORN-pJB42. Transfections were carried out as previously described. Conditions are as follows, FORN-pJB42 controlling expression of Rep78 was transfected with and without the adenovirus helper functions. […]

| Molecule | Concentration determined to be optimum to induce expression [1] | Rep78 expression in the presence of forskolin [2] | Rep78 expression in the absence of forskolin [2] | Promoter activity (Rep78) in the presence of helper functions, absence of forskolin ([2]; adenovirus helper functions (pHelper), DMSO) | Promoter activity (Rep78) in the presence of helper functions and forskolin ([2]; adenovirus helper functions and 10 μM forskolin) |
| --- | --- | --- | --- | --- | --- |
| C=C[C@@]1(C)CC(=O)[C@]2(O)[C@@]3(C)[C@@H](O)CCC(C)(C)[C@@H]3[C@H](O)[C@H](OC(C)=O)[C@@]2(C)O1 [Forskolin] | about 18 μM | – | – | – | – |
| B1 | – | strong expression | no Rep78 expression | – | – |
| B2 | – | strong expression | no Rep78 expression | activated | full activity |
| B3 | – | strong expression | no Rep78 expression | – | – |
